First the molecules themselves.
B1: CED-4 apoptosome (natural protein, C. elegans)
chain: MLCEIECRALSTAHTRLIHDFEPRDALTYLEGKNIFTEDHSELISKMSTRLERIANFLRIYRRQASELGPLIDFFNYNNQSHLADFLEDYIDFAINEPDLLRPVVIAPQFSRQMLDRKLLLGNVPKQMTCYIREYHVDRVIKKLDEMCDLDSFFLFLHGRAGSGKSVIASQALSKSDQLIGINYDSIVWLKDSGTAPKSTFDLFTDILLMLKSEDDLLNFPSVEHVTSVVLKRMICNALIDRPNTLFVFDDVVQEETIRWAQELRLRCLVTTRDVEISNAASQTCEFIEVTSLEIDECYDFLEAYGMPMPVGEKEEDVLNKTIELSSGNPATLMMFFKSCEPKTFEKMAQLNNKLESRGLVGVECITPYSYKSLAMALQRCVEVLSDEDRSALAFAVVMPPGVDIPVKLWSCVIPVDICSNEEEQLDDEVADRLKRLSKRGALLSGKRMPVLTFKIDHIIHMFLKHVVDAQTIANGISILEQRLLEIGNNNVSVPERHIPSHFQKFRRSSASEMYPKTTEETVIRPEDFPKFMQLHQKFYDSLKNFACC
notes: CED-4, C. elegans; also called CED-4b; CED-4c; source: recombinantly expressed, obtained as previously reported (Qi et al, 2010), purified (SEC)

Data set [1] deals with the molecule itself. The experiment in a line: cryo-EM structure; CED-4 apoptosome alone (Apo dataset), low-salt sample, about 2 uM; 3D classification and refinement.
Data set [2] concerns the molecule itself. The experiment in a line: cryo-EM structure; CED-4/CED-3_CARD complex, assembled at 4°C for 1 h, purified by SEC in 20 mM HEPES pH 7.5, 10 mM KCl, 1.5 mM MgCl2, 1 mM EDTA, 1 mM DTT; about 2 uM.
Data set [3] deals with the molecule itself. As to the kind of experiment: cryo-EM structure; holoenzyme: ternary complex of CED-4, CED-3 CARD and CED-3 catalytic domain, assembled at 4°C for 1 h, purified by SEC in 20 mM HEPES pH 7.5, 10 mM KCl, 1.5 mM MgCl2, 1 mM EDTA, 1 mM DTT; about 2 uM.
The target in data set [4] is B1. The experiment in a line: cryo-EM structure; CED-4/CED-3_CARD complex, assembled at 4°C for 1 h, purified by SEC in 20 mM HEPES pH 7.5, 10 mM KCl, 1.5 mM MgCl2, 1 mM EDTA, 1 mM DTT; about 2 uM. To be noted: both partners purified.
In data set [5] the target is B1. The experiment in a line: cryo-EM structure; CED-4/CED-3 catalytic complex: CED-4 incubated with CED-3 (198-503, C358A), assembled at 4°C for 1 h, purified by SEC in 20 mM HEPES pH 7.5, 10 mM KCl, 1.5 mM MgCl2, 1 mM EDTA, 1 mM DTT; about 2 uM. To be noted: both partners purified.

As to B1, the entries for the “stoichiometry N” value in data set [1], in data set [2] and in data set [3] were 7, 8 and 6, respectively.

B2: WT CED-3 CARD (domain or fragment, C. elegans, UniProt P42573 1-91, looked up)
chain: MMRQDRRSLLERNIMMFSSHLKVDEILEVLIAKQVLNSDNGDMINSCGTVREKRREIVKAVQRRGDVAFDAFYDALRSTGHEGLAEVLEPL
notes: CED-3 CARD (caspase recruitment domain), C. elegans; source: E. coli BL21 (DE3), purified (Ni-NTA, Source-15Q anion exchange)
Regarding B2, the “stoichiometry N” value with CED-4 apoptosome [4] was 4 CED-3 CARDs per octameric CED-4 apoptosome.

B3: CED-3 catalytic mutant (198–503, C358A) (domain or fragment, C. elegans, UniProt P42573 198-503, looked up)
chain: NRSFSKASGPTQYIFHEEDMNFVDAPTISRVFDEKTMYRNFSSPRGMCLIINNEHFEQMPTRNGTKADKDNLTNLFRCMGYTVICKDNLTGRGMLLTIRDFAKHESHGDSAILVILSHGEENVIIGVDDIPISTHEIYDLLNAANAPRLANKPKIVFVQAARGERRDNGFPVLDSVDGVPAFLRRGWDNRDGPLFNFLGCVRPQVQQVWRKKPSQADILIAYATTAQYVSWRNSARGSWFIQAVCEVFSTHAKDMDVVELLTEVNKKVACGFQTSQGSNILKQMPEMTSRLLKKFYFWPEARNSAV
notes: CED-3 catalytic domain, C. elegans, residues 198-503; also called CED-3 catalytic domain; catalytic mutant (C358A); source: expressed and purified as described previously (Huang et al, 2013)
Take B3: in the data set with CED-4 apoptosome [5], the binding result is reported as “binds”.

(Values after article PMC10320015, “Structural insights into CED-3 activation” (Life Science Alliance, 2023).)
